Measurements taken from paper PMC9482650, “Quantitative fragmentomics allow affinity mapping of interactomes” (Nature Communications, 2022).

T1: GRIP1_7, Q9Y3R0
T1 sequence (Q9Y3R0 999-1096, limits assumed, looked up): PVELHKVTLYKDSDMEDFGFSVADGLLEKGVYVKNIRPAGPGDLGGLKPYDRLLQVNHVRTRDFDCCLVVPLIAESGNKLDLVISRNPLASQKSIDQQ

T2: LRRC7, Q96NW7
T2 sequence (Q96NW7 1440-1537, limits assumed, looked up): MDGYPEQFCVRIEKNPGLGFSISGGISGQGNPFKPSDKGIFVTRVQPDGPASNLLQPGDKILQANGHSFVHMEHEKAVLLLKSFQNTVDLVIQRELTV

T3: PTPN13_1, Q12923
T3 sequence (Q12923 1088-1188, limits assumed, looked up): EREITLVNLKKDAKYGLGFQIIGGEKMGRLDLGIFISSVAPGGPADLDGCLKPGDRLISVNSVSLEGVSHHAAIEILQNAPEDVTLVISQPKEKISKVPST

T4: APBA1_2, Q02410
T4 sequence (Q02410 742-832, limits assumed, looked up): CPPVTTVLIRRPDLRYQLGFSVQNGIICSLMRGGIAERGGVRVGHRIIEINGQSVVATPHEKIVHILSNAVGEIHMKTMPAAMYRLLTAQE

T5: APBA3_1, O96018
T5 sequence (O96018 389-490, limits assumed, looked up): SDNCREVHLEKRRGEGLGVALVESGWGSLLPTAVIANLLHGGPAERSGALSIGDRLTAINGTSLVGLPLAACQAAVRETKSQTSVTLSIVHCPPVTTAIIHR

T6: NHERF3_1, Q5T2W1
T6 sequence (Q5T2W1 4-100, limits assumed, looked up): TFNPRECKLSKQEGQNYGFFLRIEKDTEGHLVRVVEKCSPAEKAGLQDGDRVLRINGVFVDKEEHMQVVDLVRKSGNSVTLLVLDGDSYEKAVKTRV

T7: FRMPD1, Q5SYB0
T7 sequence (Q5SYB0 52-145, limits assumed, looked up): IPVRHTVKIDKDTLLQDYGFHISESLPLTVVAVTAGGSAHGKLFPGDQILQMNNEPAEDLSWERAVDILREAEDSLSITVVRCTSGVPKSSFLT

T8: NHERF3_3, Q5T2W1
T8 sequence (Q5T2W1 238-333, limits assumed, looked up): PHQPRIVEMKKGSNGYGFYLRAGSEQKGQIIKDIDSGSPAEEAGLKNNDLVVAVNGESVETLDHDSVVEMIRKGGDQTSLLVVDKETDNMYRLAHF

T9: DFNB31_1, Q9P202
T9 sequence (Q9P202 135-233, limits assumed, looked up): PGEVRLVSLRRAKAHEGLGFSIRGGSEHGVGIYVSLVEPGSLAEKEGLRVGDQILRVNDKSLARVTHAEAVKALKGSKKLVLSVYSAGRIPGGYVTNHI

T10: APBA1_1, Q02410
T10 sequence (Q02410 651-752, limits assumed, looked up): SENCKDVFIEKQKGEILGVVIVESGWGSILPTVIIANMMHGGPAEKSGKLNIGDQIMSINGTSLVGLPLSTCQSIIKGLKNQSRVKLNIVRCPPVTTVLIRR

T11: NHERF3_4, Q5T2W1
T11 sequence (Q5T2W1 373-468, limits assumed, looked up): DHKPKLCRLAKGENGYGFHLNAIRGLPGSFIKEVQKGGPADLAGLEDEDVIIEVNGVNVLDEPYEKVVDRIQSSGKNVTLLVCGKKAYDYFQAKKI

T12: APBA2_1, Q99767
T12 sequence (Q99767 563-664, limits assumed, looked up): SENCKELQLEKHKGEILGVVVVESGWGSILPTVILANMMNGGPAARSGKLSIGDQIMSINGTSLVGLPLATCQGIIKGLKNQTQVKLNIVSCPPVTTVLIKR

B1: GPRC6A, Q5T6X5 (peptide)
chain: TLPRKRMSSI
B2: RSRC2, Q7L4I2 (peptide)
chain: TSSMRGMDAV
B3: TGFA, P01135 (peptide)
chain: TACCHSETVV
B4: EFNB1, P52799 (peptide)
chain: QSPANIYYKV

Assays:
Experiment in all cases: holdup assay
Design in all cases: key: below the threshold = too weak to quantify, mostly under pKd 3.1 to 4
Settings in all cases: plain residues with an end cap or a label only (N-terminal biotin on a linker: ado-ado)
[1] = biological target: T1, GRIP1_7, Q9Y3R0
[2] = biological target: T2, LRRC7, Q96NW7
[3] = biological target: T3, PTPN13_1, Q12923
[4] = biological target: DLG1_3, Q12959
[5] = biological target: T4, APBA1_2, Q02410
[6] = biological target: DLG1_1, Q12959
[7] = biological target: HTRA2, O43464
[8] = biological target: GRIP2_7, Q9C0E4
[9] = biological target: T5, APBA3_1, O96018
[10] = biological target: GRID2IP_1, A4D2P6
[11] = biological target: T6, NHERF3_1, Q5T2W1
[12] = biological target: T7, FRMPD1, Q5SYB0
[13] = biological target: T8, NHERF3_3, Q5T2W1
[14] = biological target: T9, DFNB31_1, Q9P202
[15] = biological target: FRMPD4, Q14CM0
[16] = biological target: T10, APBA1_1, Q02410
[17] = biological target: FRMPD3, Q5JV73
[18] = biological target: DLG1_2, Q12959
[19] = biological target: MAGI2_2, Q86UL8
[20] = biological target: DLG2_3, Q15700
[21] = biological target: Inadl_2, Q8NI35
[22] = biological target: T11, NHERF3_4, Q5T2W1
[23] = biological target: T12, APBA2_1, Q99767
[24] = biological target: MAGI2_3, Q86UL8
[25] = biological target: IL16_4, Q14005
[26] = biological target: Inadl_5, Q8NI35
Inadl_5, Q8NI35, sequence (Q8NI35 673-780): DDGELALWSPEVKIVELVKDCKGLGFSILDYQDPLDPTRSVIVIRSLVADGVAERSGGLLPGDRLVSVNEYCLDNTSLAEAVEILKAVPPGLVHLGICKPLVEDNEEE

FRMPD3, Q5JV73, sequence (Q5JV73 12-100): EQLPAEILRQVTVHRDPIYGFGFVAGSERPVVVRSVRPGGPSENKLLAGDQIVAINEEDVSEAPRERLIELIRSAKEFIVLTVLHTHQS
HTRA2, O43464, sequence (O43464 355-458): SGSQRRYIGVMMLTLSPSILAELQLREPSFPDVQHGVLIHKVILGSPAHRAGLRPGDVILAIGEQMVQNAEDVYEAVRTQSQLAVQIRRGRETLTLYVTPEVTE
MAGI2_2, Q86UL8, sequence (Q86UL8 410-522): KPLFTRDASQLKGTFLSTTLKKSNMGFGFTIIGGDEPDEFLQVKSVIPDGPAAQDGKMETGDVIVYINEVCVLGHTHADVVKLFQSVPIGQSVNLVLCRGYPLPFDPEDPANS
IL16_4, Q14005, sequence (Q14005 1229-1329): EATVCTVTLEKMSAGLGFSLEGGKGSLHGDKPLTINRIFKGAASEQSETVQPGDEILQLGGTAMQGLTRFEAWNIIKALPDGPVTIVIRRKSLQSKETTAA
GRID2IP_1, A4D2P6, sequence (A4D2P6 1-87): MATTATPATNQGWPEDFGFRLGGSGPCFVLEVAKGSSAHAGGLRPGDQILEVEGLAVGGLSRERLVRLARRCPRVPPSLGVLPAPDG
Inadl_2, Q8NI35, sequence (Q8NI35 238-335): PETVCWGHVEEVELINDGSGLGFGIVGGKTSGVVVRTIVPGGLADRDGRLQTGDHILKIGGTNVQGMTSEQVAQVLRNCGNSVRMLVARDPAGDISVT
FRMPD4, Q14CM0, sequence (Q14CM0 67-160): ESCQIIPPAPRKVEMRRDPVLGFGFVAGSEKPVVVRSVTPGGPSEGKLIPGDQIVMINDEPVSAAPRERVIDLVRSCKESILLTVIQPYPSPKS
MAGI2_3, Q86UL8, sequence (Q86UL8 600-682): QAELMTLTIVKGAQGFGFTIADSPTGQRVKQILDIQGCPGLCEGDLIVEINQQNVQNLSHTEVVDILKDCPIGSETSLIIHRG
GRIP2_7, Q9C0E4, sequence (Q9C0E4 934-1023): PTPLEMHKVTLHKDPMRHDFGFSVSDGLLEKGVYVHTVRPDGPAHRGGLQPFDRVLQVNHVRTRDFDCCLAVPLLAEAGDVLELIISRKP

Binder | pKd [1] | pKd [2] | pKd [3] | pKd [4] | pKd [5] | pKd [6] | pKd [7] | pKd [8] | pKd [9] | pKd [10] | pKd [11] | pKd [12] | pKd [13] | pKd [14] | pKd [15] | pKd [16] | pKd [17] | pKd [18] | pKd [19] | pKd [20] | also measured
B1 | below the threshold | below the threshold | below the threshold | below the threshold | below the threshold | below the threshold | below the threshold | below the threshold | below the threshold | below the threshold | below the threshold | below the threshold | below the threshold | 3.59 | below the threshold | below the threshold | below the threshold | 3.76 | 3.82 | 3.84 | pKd [21]: below the threshold; pKd [22]: below the threshold; pKd [23]: below the threshold; pKd [24]: below the threshold; pKd [25]: below the threshold; pKd [26]: below the threshold
B2 | below the threshold | below the threshold | below the threshold | below the threshold | 3.86 | below the threshold | below the threshold | below the threshold | below the threshold | below the threshold | below the threshold | below the threshold | below the threshold | below the threshold | below the threshold | below the threshold | below the threshold | below the threshold | 4.02 | below the threshold | pKd [21]: below the threshold; pKd [22]: below the threshold; pKd [23]: below the threshold; pKd [24]: below the threshold; pKd [25]: below the threshold; pKd [26]: below the threshold
B3 | below the threshold | below the threshold | below the threshold | 3.97 | 3.87 | 4.56 | below the threshold | below the threshold | below the threshold | below the threshold | 3.64 | below the threshold | below the threshold | 4.02 | below the threshold | below the threshold | below the threshold | 4.89 | 4.74 | 4.05 | pKd [21]: below the threshold; pKd [22]: below the threshold; pKd [23]: below the threshold; pKd [24]: below the threshold; pKd [25]: below the threshold; pKd [26]: 3.7
B4 | below the threshold | below the threshold | below the threshold | below the threshold | below the threshold | below the threshold | 4.18 | 4.34 | below the threshold | below the threshold | below the threshold | below the threshold | below the threshold | below the threshold | 3.8 | below the threshold | below the threshold | below the threshold | below the threshold | below the threshold | pKd [21]: below the threshold; pKd [22]: below the threshold; pKd [23]: below the threshold; pKd [24]: below the threshold; pKd [25]: below the threshold; pKd [26]: below the threshold
